Results: patent US20250101120A1 (BEIJING SOLOBIO GENETECHNOLOGY, published 2025)
Values belong to the molecule of their own block, whether it stands above or below them.

Tests used:
[1] = target: hFc-hFasL (fusion protein of human Fc fragment and human FasL extracellular region) (human) (UniProt P48023); experiment: cell-based or functional assay
[2] = target: hFc-hFasL (fusion protein of human Fc fragment and human FasL extracellular region) (human) (UniProt P48023); experiment: ELISA, hFc-hFasL coated, sample titrated (detection for this reference not separately stated)
[3] = target: T1, hFc-hFasL (fusion protein of human Fc fragment and human FasL extracellular region) (human, UniProt P48023 134-281); experiment: cell-based or functional assay
T1 sequence: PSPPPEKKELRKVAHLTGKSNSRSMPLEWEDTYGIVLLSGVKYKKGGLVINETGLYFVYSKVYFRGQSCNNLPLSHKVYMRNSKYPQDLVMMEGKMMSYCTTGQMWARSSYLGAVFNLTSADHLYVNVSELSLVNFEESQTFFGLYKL

[4] = target: T1, hFc-hFasL (fusion protein of human Fc …); experiment: cell-based or functional assay; remark: listed apart in the source
[5] = target: T1, hFc-hFasL (fusion protein of human Fc …); experiment: ELISA, hFc-hFasL coated, antibody titrated, anti-human kappa-HRP (protocol of Example 3.2)
[6] = target: T1, hFc-hFasL (fusion protein of human Fc …); experiment: cell-based or functional assay; remark: listed apart in the source
[7] = target: T1, hFc-hFasL (fusion protein of human Fc …); experiment: cell-based or functional assay; remark: listed apart in the source
[8] = target: T1, hFc-hFasL (fusion protein of human Fc …); experiment: cell-based or functional assay; remark: listed apart in the source
[9] = target: T1, hFc-hFasL (fusion protein of human Fc …); experiment: ELISA, hFc-hFasL coated, sample titrated (detection for this reference not separately stated)

HepG2 IC50(nM), FasL antigen-induced cell apoptosis [1]: 0.074 nM
IC50(nM), FasL antigen-induced apoptosis of HepG2 cells (CellTiter-Glo ATP) [1]: 0.099 nM
Jurkat IC50(nM), FasL antigen-induced cell apoptosis [1]: 0.046 nM
EC50 [2]: 0.948 nM
Molecule: MAB126-100 (commercial anti-FasL antibody, RD)

HepG2 IC50(nM), FasL antigen-induced cell apoptosis [3]: 0.0143 nM
Jurkat IC50(nM), FasL antigen-induced cell apoptosis [3]: 0.0149 nM
EC50(nM), FasL antigen-induced NF-κB signaling pathway activation [4]: 0.47 nM
EC50 [5]: 0.301 nM
B1: humFL-M88-15 (antibody, human IgG4, V domains shown)
VH: QVQLVQSGAEVKKPGASVKVSCKGSGYTFTDYTIHWVRQAPGQGLEWMGVISTYQGDASYNQKFKGRATMTVDKSTSTAYMELSSLRSEDTAVYYCARFPDWDYAMDYWGQGTLVTVSS
VL: EIVMTQSPATLSVSPGERATLSCKASQSVDYDGDSYMNWYQQKPGQPPRLLIYAASNLESGIPARFSGSGSGTEFTLTISSLQSEDFAVYYCQQSRELPYTFGQGTKLEIK
notes: Humanized FL-M88

IC50(nM), FasL antigen-induced apoptosis of Jurkat cells (CellTiter-Glo ATP) [6]: > 100 nM
EC50(nM), FasL antigen-induced NF-κB signaling pathway activation (SEAP, HepG2-Dual) [7]: 7.23 nM
IC50(nM), FasL antigen-induced apoptosis of HepG2 cells (CellTiter-Glo ATP) [8]: 11.3 nM
EC50 [9]: 23.5 nM
B2: APG101 (Fas fusion protein, Apogenix) (Fc fusion, UniProt P25445 26-172, looked up)
chain: QVTDINSKGLELRKTVTTVETQNLEGLHHDGQFCHKPCPPGERKARDCTVNGDEPDCVPCQEGKEYTDKAHFSSKCRRCRLCDEGHGLEVEINCTRTQNTKCRCKPNFFCNSTVCEHCDPCTKCEHGIIKECTLTSNTKCKEEGSRS
notes: also called Fas-Fc fusion protein APG101; FasL antagonist APG101; not shown: Fc part of APG101
